Assay results as given in patent US20140134690A1, “MICROBES AND METHODS FOR PRODUCING 1-PROPANOL” (University of Georgia Research Foundation, Inc., priority 2012, published 2014).

Legend:
Assay in all cases: cells, lysate or membranes named
[1] = substrate: O=C(CO)COP(=O)(O)O; format: biochemical, C. acetobutylicum; settings: other: substrate dihydroxyacetone phosphate 0.15-1.5 mM, crude extract, imidazole-HCl pH 7.0, 30° C.
From the text: (§1) 1,2-Propanediol pathway branches from glycolysis and competes for the intermediate dihydroxyacetone phosphate, with the glycolytic pathway. […] We amplified the mgsA genes from the microorganisms: C. acetobutylicum (ATCC#824), B. subtilis 168, C. difficile R20291, E. coli MG1655, T. thermophilus HB27, K. pneumoniae MGH78578, P. fluorescens Pf-5, and R. eutropha H16 respectively. These genes were cloned and expressed in wild type E. coli BW25113 using eight plasmids pRJ1-pRJ8. Each gene was under the control of the IPTG-inducible pLlacO1 promoter. Using dihydroxyacetone-phosphate as the substrate, we successfully detected the functional expression of all mgsA genes in vitro, where the specific activities varied from 0.0052 U/mg to 0.1242 U/mg (Table 1). […] Without the over-expression of mgsA gene, we also detected the native expression of E. coli mgsA, which gave a specific activity of only 0.0008 U/mg, much lower than that of any over-expression.
(§2) Using the primers listed in Table 5, the mgsA genes were PCR amplified from the genomic DNA of C. acetobutylicum (ATCC824), B. subtilis 168, Clostridium difficile R20291, E. coli MG1655, Thermus thermophilus HB27, K. pneumoniae MGH78578, Pseudomonas fluorescens Pf-5, and Ralstonia eutropha H16 respectively. […]
(§3) The assay was carried out using a two-step procedure. […] The samples were diluted 10 times before measuring the absorbance at 550 nm.

[2] = substrate: O=C(CO)COP(=O)(O)O; format: biochemical, T. thermophilus; settings: other: substrate dihydroxyacetone phosphate 0.15-1.5 mM, crude extract, imidazole-HCl pH 7.0, 30° C.
From the text: as §1, §2, §3

[3] = substrate: O=C(CO)COP(=O)(O)O; format: biochemical, R. eutropha; settings: other: substrate dihydroxyacetone phosphate 0.15-1.5 mM, crude extract, imidazole-HCl pH 7.0, 30° C.
From the text: as §1, §2, §3

[4] = substrate: CC(=O)C=O; format: biochemical, E. coli; settings: other: substrate methylglyoxal 20-120 mM, 0.25 mM NADH, crude extract, imidazole-HCl pH 7.0, 37° C.
Method: When the gene is over-expressed by pRJ10, the specific activity was determined to be 1.62±0.012 U/mg.

[5] = substrate: O=C(CO)COP(=O)(O)O; format: biochemical, P. fluorescens; settings: other: substrate dihydroxyacetone phosphate 0.15-1.5 mM, crude extract, imidazole-HCl pH 7.0, 30° C.
From the text: as §1, §2, §3

[6] = substrate: O=C(CO)COP(=O)(O)O; format: biochemical, B. subtilis; settings: other: substrate dihydroxyacetone phosphate 0.15-1.5 mM, crude extract, imidazole-HCl pH 7.0, 30° C.
From the text: as §1, §2, §3

B1: Clostridium acetobutylicum (ATCC 824) methylglyoxal synthase (mgsA), wild type (Clostridium acetobutylicum ATCC 824) (protein)
chain: MNSKKKIALVAHDNRKKALISWCEANSEVLSNHSLCGTGTTAKLIKEATGLEVFPYKSGPMGGDQQIGAAIVNEDIDFMIFFWDPLTAQPHDPDVKALLRISVLYDIPIAMNESTAEFLIKSPIMKEQHERHIIDYYQKIRKDNF
Q: For B1, which Km [1] is on record?
A: The Km was 776 ± 5 µM.

B2: Thermus thermophilus HB27 methylglyoxal synthase (mgsA), wild type (Thermus thermophilus HB27) (protein)
chain: MKALALIAHDAKKDEMVAFCLRHKDVLARYPLLATGTTGARIQEATGLAVERVLSGPLGGDLQIGARVAEGKVLAVVFLQDPLTAKPHEPDVQALMRVCNVHGVPLATNLVAAEALIAWIRKGTPQ
Q: Which Km [2] does the source give for B2 here?
A: Its Km is 2118 ± 70 µM.

B3: Ralstonia eutropha H16 methylglyoxal synthase (mgsA), wild type (Cupriavidus necator H16) (protein)
chain: MTRPRIALIAHDHKKDDIVAFATRHRAFLSQCELLATGTTGGRLIDEVGLEVTRMLSGPWGGDLQIGAQLAVGLVRAVVFLRDPMTPQPHEPDINALVRACDVHNVPCATNVATAELLIAGLAREVDEAAAS
Q: How did the Km [3] turn out when B3 was run?
A: Its Km is 700 ± 30 µM.

B4: E. coli MG1655 methylglyoxal reductase (ydjG), wild type (Escherichia coli K-12) (protein)
chain: MKKIPLGTTDITLSRMGLGTWAIGGGPAWNGDLDRQICIDTILEAHRCGINLIDTAPGYNFGNSEVIVGQALKKLPREQVVVETKCGIVWERKGSLFNKVGDRQLYKNLSPESIREEVAASLQRLGIDYIDIYMTHWQSVPPFFTPIAETVAVLNELKSEGKIRAIGAANVDADHIREYLQYGELDIIQAKYSILDRAMENELLPLCRDNGIVVQVYSPLEQGLLTGTITRDYVPGGARANKVWFQRENMLKVIDMLEQWQPLCARYQCTIPTLALAWILKQSDLISILSGATAPEQVRENVAALNINLSDADATLMREMAEALER
Q: How did the Km [4] turn out when B4 was run?
A: The Km was 3310 ± 20 µM.

B5: Pseudomonas fluorescens Pf-5 methylglyoxal synthase (mgsA), wild type (Pseudomonas protegens Pf-5) (protein)
chain: MIGISFTHKTMAARKRIALVAHDHCKAFLLEWAGRQKARLAEHELVATGTTGLLLSKHLGLPVESMISGPLGGDQQLGAQIAEQRVDLLVFFWDPFEPQPHDPDIKALLRVAAVWNIPVACNECSADYLLSSPLMNQAHEHRIPDYQAYLAGRG
Q: B5 was tested. Which Km [5] did it give?
A: The Km was 1560 ± 20 µM.

B6: Bacillus subtilis 168 methylglyoxal synthase (mgsA), wild type (Bacillus subtilis subsp. subtilis str. 168) (protein)
chain: MKIALIAHDKKKQDMVQFTTAYRDILKNHDLYATGTTGLKIHEATGLQIERFQSGPLGGDQQIGALIAANALDLVIFLRDPLTAQPHEPDVSALIRLCDVYSIPLATNMGTAEILVRTLDEGVFEFRDLLRGEEPNV
Q: Which Km [6] does the source give for B6 here?
A: The Km was 473 ± 70 µM.
